Laboratory results taken from the nanobody polyreactivity screen of Harvey et al. (2022).

Assay: yeast display, Sf9 membrane polyspecificity reagent, FACS + sequencing; frameworks hold sequencing errors
Method in brief: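 A nanobody's polyreactivity label depends on the gate it was sorted from. Yeast display cells were stained with 10% biotinylated, detergent-solubilized Sf9 membrane reagent for 1 hour at 4 °C, enriched on streptavidin microbeads and sorted by FACS. The low and high (top ~1%) gates were set on anti-HA fluorescence for expression and streptavidin fluorescence for reagent binding.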

## QVQLVESGGGLVQAGGSLRLSCAASGFIFGRYAMGWYRQAPGKERELVAAISRGGGSTRYADSVKGRFTISRDNAKNTVYLQMKSLKPEDTAVYYCAAYRYWGRTSYSYDYWGQGTQVTVSS
  polyreactivity (PSR sort gate): high polyreactivity

## QVQLVESGGGLVQAGGSLRLSCAASGLIFRHYAMGWYRQSPGKEREFVAAITWSGGSTYYADSVKGRFTISRDNAKNTVYLQMNSLKPEDTAVYYCAAEGPGYGPTGDFYWYTYYYWGQGSQVTVSS
  polyreactivity (PSR sort gate): low polyreactivity

## QLQLVESGGGLVQAGARLRLSCAASGSIFRFNPMGWYIPAPGKERELVAAITSSGDSTYYADSVKGRFTISRDNAKYTVYLQMNCLKPEDTAVSDCAAVRNRFIGWTVRYNWARIYNYWGQGTQVTVSS
  polyreactivity (PSR sort gate): high polyreactivity

## QVQLVESGGGLVQAGGSLRLSCAASGSIFWRYAMGWYRQAPGKERELVAAIDVSGATTYYADSVKGRFTISRDNAKNTVYLQMNSLKPEDTAVYYCATYATNSVAAYDYWGQGTQVTVSS
  polyreactivity (PSR sort gate): low polyreactivity

## QVQLVESGGGLVQAGGSLRLSCAASGSIFKKYAMGWYRQAPGKERELVAAISKSGGSTYYADSVKGRFTISRDNAKNTVYLQMNSLKPDDTAVYYCAAAAGGSAYWDYDYWGQGTQVTVSS
  polyreactivity (PSR sort gate): low polyreactivity

## QVQLVESGGGLVQAGGSLRLSCAASGSNFGRYVMGWYRQAPGKERELVAAITRTGVRTYYADSVKGRFTISRDNANNTVYLQINSLKPEDTAVYYCNRYGARSNDYWGQGTQVTESS
  polyreactivity (PSR sort gate): low polyreactivity

## QVQLQESGGGLVQAGGSLRRSCAASGSIFSHWAMGWYRQTPGKERELVASITAGGNTNYADSVKGRFTISRDNAKNTVYLPMDSLKPEDTAVYYCAADGYYGAWDLEYYYWGQGTQVTVSS
  polyreactivity (PSR sort gate): low polyreactivity

## QVQLVESRGGLVQAGGSLRLSCAASGYIFSYNAMGCYRQAPGKERELVAATSSRGGSTYYADSVKGRFTISRDNAKNPDYLQMNSLKPEDTAVYFCAVSSRRVDTEPYDYWGQGTQVTVSS
  polyreactivity (PSR sort gate): high polyreactivity

## QVQLVESGGGLVQAGGSLRLSCAGSGRTFEINAMGWYRQAPGKERELVAAITVSGGSTYYADSVKGRFTISRDNAKNTVYLQMNSLKPEDTAVYYCAVEIVYGQGKEVNSWGQGTQVTVSS
  polyreactivity (PSR sort gate): low polyreactivity

## QVQLVESGGGLVQARGSLRLSSAASGRTFHYNAMGWYRQAPGKERELVAAISFNGGGTYYADSVKGRFTISRDNAKNTVYLQMNCLKTEDTAVYYCATDVPSRYDYWGQGTQVTVSS
  polyreactivity (PSR sort gate): low polyreactivity

## QVQLVESGGGLVQAGGSLRLSCAASGFTFRYYTLGWYRQAPGKERELVAVMRSTGSTNYADSVKGRFTISRDNAKNTVYLQMNSLKAEDTAVYYCNAARGWYNPPKYGSIGFDYWGQGTQVTVSS
  polyreactivity (PSR sort gate): high polyreactivity

## QVQLVESGGGLVQAGGSLRLSCAAYGSIFSENAMGWYRQAPGKEWELVADITDGGGSTYYADSVKGRFTISRDNAKNPVYLQMNSLKPDDTAVYYCNAQIFFFAPWYYEYDYWGQCTQVTVSS
  polyreactivity (PSR sort gate): low polyreactivity

## QVQLVESGGGLVQVGGSLRLSCAASGRTVWWYAMGWYRQAPGKERELVAAISRGSTNYADSVKGRFTISRDNAKNTVYLQMNSLKPEDTAVYYCNAVSLYQSHDYDYWGQGTQVTVSS
  polyreactivity (PSR sort gate): low polyreactivity

## QVQLVESGGGLVQAGGSLRLSCAASGFTFYSYVMGWYRQAPGKERELVAAISWSGGSTYYADSVKGRFTISRDNAKNTVYLQMNSLKPEDTAVYYCAARRYASRTGYLYDYWGQGTQVTVSS
  polyreactivity (PSR sort gate): high polyreactivity

## QVQLVESGGGLVQAGGSLRISCAASGSIFKKYAMGWYIQAPGKEREFVAAITRGTYYADSVKGRFTISRDNAKNTVYLQMNSLKPEDTAVYDCYREYWGRGYYRVRGEYDYWGQGTQVTVSS
  polyreactivity (PSR sort gate): low polyreactivity

## QVQLVESGGGLVQAGGSVRLSCAASGSIFGYYALGWYRQAPGTERELVAAISSGGSTKYADSVKGRFTISRDNAKNTVYLQMNSLKPEDTAVYYCATRIRSGSYPYPRYDYWGQGTQVTVSS
  polyreactivity (PSR sort gate): high polyreactivity

## QVQLVESGGGLVQAGGSLRLSCAASGRTFGRNAMGWYRQAPGKERELVAAISSSGTRTYYADSVKGRFTISRDNAKNTVYLQMNSLKPEDTAVYYCAVDTLRYKMDYWGQGTQVTVSS
  polyreactivity (PSR sort gate): low polyreactivity

## QVQLVESGGGLVQAGGSLRLSCAASGFIFRDYAMGWYRQAPGKERELVAAISWSSDSTYYADSVKWRFTISRDNAKNTVYLQMNSLKPEDTAVYYCAAKGLRGYWWGFDYWGQGTQVTVSS
  polyreactivity (PSR sort gate): low polyreactivity

## QVQLVESGGGLVQAGGSLRLSCAASGSTFTPNAMGWYRQAPGKERELVAAINWSDSSTYYADSVKGRFTISRDNAKNTVYLQMNSLKPEETAVYYCAAAAQYGQLQVPVYYWGQGTQVTVSS
  polyreactivity (PSR sort gate): low polyreactivity

## QVQLVESGGGLVQAGGSLRLSCAASGITFDIYAMGWYRQAPGKVRELVAAISGSDGSTYYADSVKGRFTISRDNAKNTVYLQMNSLKPEDTAVYYGAAESEYAGTYESDYWGLGTQVTVSS
  polyreactivity (PSR sort gate): low polyreactivity

## QVQLVESGGGLVQAGGSLRLICAASGRSFIGNAMGWYSQAPGKDREFDAAISRRGGSTYYADSVKGRFTISRDNEKNTVYLQMNSLKPEDTAVYYCAAGQTTTGILTYYYWGQGTQVTGSS
  polyreactivity (PSR sort gate): high polyreactivity

## KVQLVESGGGLVQAGGSLRLSCAPSGRIFQPNVMGWYRQPPGKVRELAAAIRSVSSTYYADSVKGRFTISRDNAKNSVYLQMNSLKPEDTAVYYCAARLFLRGYTRGNYLGQGTQVTVSS
  polyreactivity (PSR sort gate): high polyreactivity

## QVQLVESGGGLVQAGGSLRLSCAASGFTFKYYAMGWYRQAPGKERELVASISWDGTRTYYADSVKGRFTISRDNAKNTVYLQMNSLKPEDTAVYDGAAVFLDYRTYSYGYWGQGTQVTVSS
  polyreactivity (PSR sort gate): high polyreactivity

## QVQLVESGGGLVQAGGSLRLSCAASGRILRTYAMGWYIQAPGKERELVAAISRSGGSTYYADSVKGRFTLSRDNAKNTVAVQMTSLKPEDTAVYYCHKAYGGRGSKDEYWGQGTQVTVSS
  polyreactivity (PSR sort gate): high polyreactivity

## QVQLVESGGGLVQAGGSLRLSCAASGSIFDDNAMGWYRQAPGKEREMVAAISANDGSTYYADSVKGRFTISRDNAKNTVYLQRNSLNPEDTAVYYCAADVKDYAAQMDSWGQGTQVTVSS
  polyreactivity (PSR sort gate): low polyreactivity

## QVQLVESGGGLVQAGGSLRLSCAASGRTIRYYAMGWYRQAPGKERELVAAITQNGGRTYYADSVKGRFTISRDNAKNTVYLQMNSLKPEDTAVYYCAKAFIQPGYKYDSWGQGTQVTVSS
  polyreactivity (PSR sort gate): high polyreactivity

## QVQLQESGGGLAQAGGSLRLSCAASGTIFPADSMGWYRQAPGKERELVAGITTGANTYYADSVKGRFTISHDNAKNTVYLQMDSLIPEDIALYYCAAPGSSTYDLEYWGQGTQVTVSS
  polyreactivity (PSR sort gate): high polyreactivity

## QVQLVESGGGLVQAGGSLRLSCAASGSTFYLYAMGWYRQAPGKERELVAVITTDGSTTYADSVKGRFTISRDNAKNTVYLQMNSLKPEDTAVYYCAAYGGNGQYYSQYDYWGQGTQVTVSS
  polyreactivity (PSR sort gate): low polyreactivity

## QVQLVESGGGLVQAGRSLRLSCAASGSILGFYAMGWYRHAPGKERELVAAIRWRAGSTYYADSVKGRFTISRDNAKNTVNLQMNSLKPEDTAVYYCAAPTKYRSRRYYWGQGTQVTVSS
  polyreactivity (PSR sort gate): high polyreactivity

## QVQLVESGGGLVQAGGSLRLSCAASGIIFARYAMGWYRQAPGKERELVASINWTGGNTYADSVKGRFTISRDNAKNSVYLQMNSLNPEDTAVYYCARDFSPGSSDPNASISFDHWGQGTQVTVSS
  polyreactivity (PSR sort gate): low polyreactivity

## QVQLQESSGGLVQAGVCLQQSCAASGSIFTQHPMGRYRQAPANEREFVAAINVGSNTYYADSVKGRITISRDNAKNTVSLQMNILTPEDTAVSYCAATSIRWSVGYFRRDYWGQGTQVTVSS
  polyreactivity (PSR sort gate): low polyreactivity
